According to US20260056186A1 (JIANGSU HENGRUI PHARMACEUTICALS, published 2026):
Like-named read-outs stand apart in the source and are kept apart here. Values belong to the binder of their own block, whether it stands above or below them.

Tests used:
[1] = target: T1, BAFF (PeproTech, Cat: 310-13) (UniProt Q9Y275 134-285); test: ELISA, plate coated with BAFF 1 ug/mL, HRP anti-human Fc, OD450
Method: (§1) BAFF (PeproTech, Cat: 310-13) was diluted to 1 μg/mL with PBS, and a 96-well plate was coated with the dilution overnight at 4° C. The plate was washed with PBST and blocked with Blocking Buffer (PBST containing 1% BSA) at 37° C. for 1 h. The plate was tapped. The test antibodies were diluted with Blocking Buffer. Incubation was performed at 37° C. for 1.5 h. The plate was washed with PBST. An HRP-mouse anti-human Fc antibody (GenScript, Cat: A01854-200) was diluted with Blocking Buffer. Incubation was performed at 37° C. for 40 min. The plate was washed with PBST. 100 μL of TMB substrate solution (Biopanda, Cat: TMB-S-003) was added, and color development was performed at 37° C. for 3 min. 100 μL of ELISA stop solution (Solarbio, Cat: C1058) was added. OD450 was measured.

[2] = target: T1, BAFF (PeproTech, Cat: 310-13); test: ELISA, BAFF coated at 1 ug/mL, anti-human Fc-HRP, OD450
Method: as §1, with “The capabilities of TACI-BCMA fusion proteins (B575701, B575702, B575703, and B575704) to bind to BAFF and APRIL were assessed by ELISA as follows: BAFF (PeproTech,” for “BAFF (PeproTech,”, “Cat: 310-13) or ARPIL (Acro Biosystems, Cat: APL-H52D1) was diluted” for “Cat: 310-13) was diluted”, “96-well plate (Costar, Cat: 3590) was coated” for “96-well plate was coated”
(§2) The capability of B575702 to bind to BAFF was consistent with that of B575704, and their EC₅₀ values decreased to ¼ of that of telitacicept. The capability of B575701 to bind to BAFF was consistent with that of B575703, and their EC₅₀ values decreased to ½ of that of telitacicept.

[3] = target: T2, APRIL (Acro Biosystems, Cat: APL-H52D1) (UniProt O75888 115-250, limits assumed); test: ELISA, APRIL coated at 1 ug/mL, anti-human Fc-HRP, OD450
T2 construct: also called ARPIL
T2 sequence (looked up): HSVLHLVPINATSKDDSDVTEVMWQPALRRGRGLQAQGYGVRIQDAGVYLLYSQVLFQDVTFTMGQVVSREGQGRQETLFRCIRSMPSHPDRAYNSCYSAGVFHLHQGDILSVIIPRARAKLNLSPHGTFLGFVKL
Method: as §1, with “The capabilities of TACI-BCMA fusion proteins (B575701, B575702, B575703, and B575704) to bind to BAFF and APRIL were assessed by ELISA as follows: BAFF (PeproTech,” for “BAFF (PeproTech,”, “Cat: 310-13) or ARPIL (Acro Biosystems, Cat: APL-H52D1) was diluted” for “Cat: 310-13) was diluted”, “96-well plate (Costar, Cat: 3590) was coated” for “96-well plate was coated”
The capabilities of the 4 fusion proteins to bind to APRIL were all stronger than that of telitacicept, and their EC₅₀ values decreased to ¼ to ⅓ of that of telitacicept.

[4] = target: T1, BAFF (PeproTech, Cat: 310-13); test: ELISA, BAFF coated; reference telitacicept
Method: as §1, with “The capabilities of TACI-BCMA fusion proteins (B575701, B575702, B575703, and B575704) to bind to BAFF and APRIL were assessed by ELISA as follows: BAFF (PeproTech,” for “BAFF (PeproTech,”, “Cat: 310-13) or ARPIL (Acro Biosystems, Cat: APL-H52D1) was diluted” for “Cat: 310-13) was diluted”, “96-well plate (Costar, Cat: 3590) was coated” for “96-well plate was coated”
as §2

[5] = target: T3, BAFF (Sino biological, 10056-HNCH) (UniProt Q9Y275 134-285, biotinylated in the blocking ELISA (site not stated)); test: ELISA, BAFF coated at 1 ug/mL, anti-human IgG-HRP
T3 construct: also called BLyS
Method: (§3) In addition, the BAFF binding activity of the constructed TACI-Fc fusion proteins was assessed, and the TACI-Fc fusion proteins' functional activity of blocking the binding of BAFF to BAFF-R was assessed (see Example 1 for the experimental method).
(§4) The BAFF binding activity of the TACI-Fc fusion proteins was assessed as follows: BAFF (Sino biological, 10056-HNCH) protein was diluted with a pH 7.4 PBS (BasalMedia, B320) buffer to 1 μg/mL, and the resulting dilution was added to a 96-well microplate (Corning, 3590) at 100 μL/well. The plate was incubated overnight at 4° C. After the liquid was discarded, 5% skim milk (BD, 232100), diluted with PBS, was added at 300 μL/well for blocking, and the plate was incubated at 37° C. for 2 h. After the blocking, the blocking solution was discarded, and the plate was washed 3 times with a PBST buffer (pH 7.4 PBS containing 0.10% tween-20). Serially diluted test antibody or fusion protein solutions were added at 100 μL/well, and the plate was incubated at 37° C. for 1 h. […] The plate was incubated at 37° C. for 1 h. After the plate was washed 3 times with PBST, the chromogenic substrate TMB (KPL, 5120-0077) was added at 100 μL/well. The plate was incubated at room temperature for 10-15 min, and 1 M H₂SO₄ was added at 50 μL/well to stop the reaction. The absorbance at 450 nm was measured using a microplate reader. Curves for the binding of the antibodies to the antigen were fitted using software, and EC₅₀ values were calculated.

[6] = target: T3, BAFF (Sino biological, 10056-HNCH); test: competition ELISA: fusion protein pre-mixed with biotinylated BAFF, added to coated BAFF-R
Method: (§5) The above TACI-Fc fusion proteins' function of blocking the binding of BAFF to BAFF-R was further assessed as follows: The receptor protein was diluted with a pH 7.4 PBS (BasalMedia, B320) buffer to 2 μg/mL, and the resulting dilution was added to a 96-well microplate (Corning, 3590) at 100 μL/well. The plate was incubated overnight at 4° C. After the liquid was discarded, 1% Casein blocking solution (Thermo, 37528) was added at 200 μL/well for blocking, and the plate was incubated at 37° C. for 2 h. After the blocking, the blocking solution was discarded, and the plate was washed 3 times with a PBST buffer (pH 7.4 PBS containing 0.1% tween-20) and set aside for later use. A biotinylated ligand protein at a fixed concentration was mixed with a serially diluted antibody or fusion protein, and the mixture was pre-incubated at 37° C. for 30 min and then added to the blocked microplate. The plate was incubated at 37° C. for 1.5 h. After the incubation, the plate was washed 3 times with PBST, and streptavidin-HRP (Invitrogen, 434323, diluted in a 1:4000 ratio) was added at 100 μL/well. The plate was incubated at 37° C. for 1 h. The supernatant was removed. After the plate was washed 3 times with PBST, the chromogenic substrate TMB (KPL, 5120-0077) was added at 100 μL/well. The plate was incubated at room temperature for 10-15 min, and 1 M H₂SO₄ was added at 50 μL/well to stop the reaction. The absorbance at 450 nm was measured using a microplate reader. Curves for the inhibition of the binding of the ligand to the receptor were fitted using software, and IC₅₀ values were calculated. The sources of the ligand and the receptor protein used are as follows: BAFF (Sino biological, 10056-HNCH) and BAFF-R (Sino biological, 16079-H02H).
as §3

[7] = target: T3, BAFF (Sino biological, 10056-HNCH); test: as above; remark: listed apart in the source
Method: as §5, with “After the plate was washed 3 times with PBST, the chromogenic substrate TMB (KPL, 5120-0077) was added at 100 μL/well. The plate was incubated at room temperature for 10-15 min, and 1 M H₂SO₄ was added at 50 μL/well to stop the reaction.” left out, “The sources of the ligand and the receptor protein used are as follows: BAFF (Sino biological, 10056-HNCH) and BAFF-R (Sino biological, 16079-H02H).” left out

[8] = target: T3, BAFF (Sino biological, 10056-HNCH); test: ELISA, BAFF coated at 1 ug/mL, anti-human IgG-HRP; remark: listed apart in the source
Method: as §4
The BAFF binding activity of the constructed TACI-Fc fusion proteins was assessed (see Example 2 for the experimental method), and the results are shown in Table 3: […]

B1: Atacicept (Fc fusion)
chain: AMRSCPEEQYWDPLLGTCMSCKTICNHQSQRTCAAFCRSLSCRKEQGKFYDHLLRDCISCASICGQHPKQCAYFCENKLRSEPKSSDKTHTCPPCPAPEAEGAPSVFLFPPKPKDTLMISRTPEVTCVVVDVSHEDPEVKFNWYVDGVEVHNAKTKPREEQYNSTYRVVSVLTVLHQDWLNGKEYKCKVSNKALPSSIEKTISKAKGQPREPQVYTLPPSRDELTKNQVSLTCLVKGFYPSDIAVEWESNGQPENNYKTTPPVLDSDGSFFLYSKLTVDKSRWQQGNVFSCSVMHEALHNHYTQKSLSLSPGK
- EC50 (read off the curve) [1]: ~300 pM

B2: B575701 (Fc fusion)
chain: LSCRKEQGKFYDHLLRDCISCASICGQHPKQCAYFCENKLRSPGMLQMAGQCSQNEYFDSLLHACIPCQLRCSSNTPPLTCQRYCNASVTNSVKGTNADKTHTCPPCPAPEAEGAPSVFLFPPKPKDTLMISRTPEVTCVVVDVSHEDPEVKFNWYVDGVEVHNAKTKPREEQYNSTYRVVSVLTVLHQDWLNGKEYKCKVSNKALPSSIEKTISKAKGQPREPQVYTLPPSRDELTKNQVSLTCLVKGFYPSDIAVEWESNGQPENNYKTTPPVLDSDGSFFLYSKLTVDKSRWQQGNVFSCSVMHEALHNHYTQKSLSLSPGK
notes: TACI-BCMA fusion protein; also called TACI-d2-BCMA-ECD-Fc
- EC50 [2]: 324 pM
- Emax [2]: 2.31 nM (as printed)
- EC50 [3]: 205 pM
- Emax [3]: 2.69
- EC50 relative to telitacicept [4]: 0.5 fold

B5: B575704 (Fc fusion)
chain: MLQMAGQCSQNEYFDSLLHACIPCQLRCSSNTPPLTCQRYCNASVTNSVKGTNASRVDQEERFPQGLWTGVAMRSCPEEQYWDPLLGTCMSCKTICNHQSQRTCAAFCRSLSCRKEQGKFYDHLLRDCISCASICGQHPKQCAYFCENKLRSPVNLPPELDKTHTCPPCPAPEAEGAPSVFLFPPKPKDTLMISRTPEVTCVVVDVSHEDPEVKFNWYVDGVEVHNAKTKPREEQYNSTYRVVSVLTVLHQDWLNGKEYKCKVSNKALPSSIEKTISKAKGQPREPQVYTLPPSRDELTKNQVSLTCLVKGFYPSDIAVEWESNGQPENNYKTTPPVLDSDGSFFLYSKLTVDKSRWQQGNVFSCSVMHEALHNHYTQKSLSLSPGK
notes: TACI-BCMA fusion protein; also called BCMA-ECD-TACI-T2-Fc
- EC50 [2]: 187 pM
- Emax [2]: 2.29 nM (as printed)
- EC50 [3]: 189 pM
- Emax [3]: 2.68
- EC50 relative to telitacicept [4]: 0.25 fold

B7: TACI-9-Fc (Fc fusion)
chain: SLSCRKEQGKFYDHLLRDCISCASICGQHPKQCAYFCENKLDKTHTCPPCPAPEAEGAPSVFLFPPKPKDTLMISRTPEVTCVVVDVSHEDPEVKFNWYVDGVEVHNAKTKPREEQYNSTYRVVSVLTVLHQDWLNGKEYKCKVSNKALPSSIEKTISKAKGQPREPQVYTLPPSRDELTKNQVSLTCLVKGFYPSDIAVEWESNGQPENNYKTTPPVLDSDGSFFLYSKLTVDKSRWQQGNVFSCSVMHEALHNHYTQKSLSLSPGK
notes: C-terminus of TACI-9 fused directly to the N-terminus of human IgG1 Fc; two identical polypeptide chains; expressed in 293E
- EC50 [5]: 490 pM
- IC50 [6]: 2090 pM
- IC50 [7]: 5020 pM
- EC50 [8]: 418 pM

Further lines, results first:

- EC50 [5]: 584 pM
- IC50 [6]: 2620 pM
B3: TACI-11-Fc (Fc fusion)
chain: SLSCRKEQGKFYDHLLRDCISCASICGQHPKQCAYFCENDKTHTCPPCPAPEAEGAPSVFLFPPKPKDTLMISRTPEVTCVVVDVSHEDPEVKFNWYVDGVEVHNAKTKPREEQYNSTYRVVSVLTVLHQDWLNGKEYKCKVSNKALPSSIEKTISKAKGQPREPQVYTLPPSRDELTKNQVSLTCLVKGFYPSDIAVEWESNGQPENNYKTTPPVLDSDGSFFLYSKLTVDKSRWQQGNVFSCSVMHEALHNHYTQKSLSLSPGK

- EC50 [5]: 561 pM
- IC50 [6]: 2700 pM
B4: TACI-10-Fc (Fc fusion)
chain: SLSCRKEQGKFYDHLLRDCISCASICGQHPKQCAYFCENKDKTHTCPPCPAPEAEGAPSVFLFPPKPKDTLMISRTPEVTCVVVDVSHEDPEVKFNWYVDGVEVHNAKTKPREEQYNSTYRVVSVLTVLHQDWLNGKEYKCKVSNKALPSSIEKTISKAKGQPREPQVYTLPPSRDELTKNQVSLTCLVKGFYPSDIAVEWESNGQPENNYKTTPPVLDSDGSFFLYSKLTVDKSRWQQGNVFSCSVMHEALHNHYTQKSLSLSPGK
notes: TACI-9 truncated C-terminally by 1 amino acid, fused directly to Fc

- EC50 [5]: 894 pM
- IC50 [6]: 3860 pM
B6: TACI-12-Fc (Fc fusion)
chain: SLSCRKEQGKFYDHLLRDCISCASICGQHPKQCAYFCEDKTHTCPPCPAPEAEGAPSVFLFPPKPKDTLMISRTPEVTCVVVDVSHEDPEVKFNWYVDGVEVHNAKTKPREEQYNSTYRVVSVLTVLHQDWLNGKEYKCKVSNKALPSSIEKTISKAKGQPREPQVYTLPPSRDELTKNQVSLTCLVKGFYPSDIAVEWESNGQPENNYKTTPPVLDSDGSFFLYSKLTVDKSRWQQGNVFSCSVMHEALHNHYTQKSLSLSPGK
notes: TACI-9 truncated C-terminally by 3 amino acids, fused directly to Fc
